# Key:
# Type in all cases: binding
# [1] = molecular target: T1, pSYK in HBL1 and Ly10 xenografts (Homo sapiens, UniProt P43405); assay: IHC on medium- and low-expressing xenografts
# T1 construct: from tissue; host or cells: FFPE HBL1 and OCI-LY10 xenografts in SCID mice
# Method: An IHC assay using the MIL81-1-8 antibody was developed to evaluate pSYK expression in HBL1 xenograft tissue and several primary human tissue xenografts (PHTX-95L, OCI LY10) derived from diffuse large B-cell lymphoma (DLBCL) patient samples in female SCID mice. pSYK protein levels in Formalin-Fixed, Paraffin-Embedded (FFPE) tissues were assessed on […] thick sections and incubated with MIL81-1-8 antibody ([…]) for 1 hour on the Ventana Medical Systems (Tucson, Ariz.) Discovery XT automated stainer. Antibodies were incubated with OmniMap goat anti-rabbit HRP secondary antibody (Ventana Medical Systems) for 16 minutes and developed with the 3,3′-diaminobexidine (DAB) substrate map system. Slides were counterstained with hematoxylin and imaged using the Aperio whole slide scanning system (XT).
# Similar results were obtained with the MIL81-1-8 subclone using an automated protocol on a Leica automated stainer. pSYK protein levels in Formalin-Fixed, Paraffin-Embedded tissues were incubated with MIL81-1-8 antibody ([…]) for 30 minutes on the Leica Microsystems (Wetzlar, Germany) BOND RX automated stainer. Antibodies were incubated with a rabbit anti-goat HRP secondary antibody (Leica Laboratories) and developed with the 3,3′-diaminobexidine (DAB) substrate map system. Slides were counterstained with hematoxylin and imaged using the Aperio whole slide scanning system (XT). […]
# [2] = molecular target: T2, pSYK Y525/6 in DLBCL tissue biopsies (Homo sapiens, UniProt P43405); assay: IHC on recently biopsied DLBCL tissues
# T2 construct: from tissue; host or cells: FFPE human DLBCL biopsies; one normal lymph node
# [3] = molecular target: T3, pSYK in PHTX 95L xenografts (Homo sapiens, UniProt P43405); assay: Quantitative pSYK IHC on PHTX 95L xenografts (Positive Pixel Count)
# T3 construct: from tissue; host or cells: FFPE sections of PHTX-95L primary human lymphoma xenografts grown in NOD SCID mice
# Method: Final selection of antibody was performed by qualitative and quantitative assessment of IHC results of staining pSYK in PHTX 95L xenografts from untreated or SYK inhibitor-treated mice described above using the Ventana Discovery XT autostainer and the same staining protocols as previous assays (see FIG. 2).
# Quantitative analysis was performed with Aperio Spectrum analysis following Postitive Pixel Count v9 Algorithm at 20× magnification. The Positive pixel analysis was used rather than a signal-to-noise ratio because of program difficulties defining true cytoplasmic staining from background for positive amounts below 5%. The table below has the results of the quantitive analysis.
# [4] = molecular target: T4, pSYK in pervanadate-treated WSU-DLCL cells, PHTX-95L xenograft, DLBCL TMA core, normal spleen (Homo sapiens, UniProt P43405); assay: Validation of MIL81-1-8 IHC specificity
# T4 construct: from tissue; host or cells: pellet of pervanadate-treated WSU-DLCL cells; PHTX-95L xenograft; DLBCL tissue microarray core; normal spleen
# Method: Validation of the specificity MIL81-1-8 on lymphoma cells used a pellet of pervanadate-treated WSU-DLCL cells, PHTX-95L xenograft or a TMA core of a DLBCL tumor. When peptide immunogen was added to the antibody prior to incubation with the tissue, the pSYK IHC staining was blocked (FIG. 9). Another validation of the specificity of MIL81-1-8 staining used phosphatase treatment of the slides prior to antibody incubation. […] Due to this nuclear staining of phosphatase-treated samples, staining of only nuclei in samples was generally judged to be off-target and thus pSYK-negative.
# [5] = molecular target: T5, pSYK in PHTX95L xenograft (Homo sapiens, UniProt P43405); assay: IHC on Leica BOND RX, PHTX95L xenograft background; settings: MIL81-1-8 at 1:3200, 2175 at 1:25
# T5 construct: from tissue; host or cells: FFPE sections of PHTX-95L primary human lymphoma xenografts grown in NOD SCID mice
# Method: Similar results were obtained with the MIL81-1-8 subclone using an automated protocol on a Leica automated stainer. pSYK protein levels in Formalin-Fixed, Paraffin-Embedded tissues were incubated with MIL81-1-8 antibody ([…]) for 30 minutes on the Leica Microsystems (Wetzlar, Germany) BOND RX automated stainer. Antibodies were incubated with a rabbit anti-goat HRP secondary antibody (Leica Laboratories) and developed with the 3,3′-diaminobexidine (DAB) substrate map system. Slides were counterstained with hematoxylin and imaged using the Aperio whole slide scanning system (XT). MIL81-1-8 antibody was compared to commercial pSYK antibody Epitomics pSYK Catalog No. 2175-1 (Y525/526) for staining specificity. […] A detectable trend toward reduction of pSYK staining also was seen by the anti-pSYK MIL81-1-8 antibody in medium- and low-expressing xenograft samples from mice treated with a SYK inhibitor (FIGS. 5 to 7).
molecule,measurement,setting,value
Subclone 1-8: rabbit monoclonal anti-pSYK Y525/526 antibody from hybridoma subclone of multiclone 81-1 (antibody) heavy: QSVEESGGRLVTPGTPLTLTCTVSGIDLNSYIMSWVRQAPGKGLEWIGIISRRGNTYYASWPKGRFTISKTSTTVDLKITSPTTEDTATYFCARAYLYTSGTMSVWGPGTLVTVSSGQPKAPSVFPLAPCCGDTPSSTVTLGCLVKGYLPEPVTVTWNSGTLTNGVRTFPSVRQSSGLYSLSSVVSVTSSSQPVTCNVAHPATNTKVDKTVAPSTCSKPTCPPPELLGGPSVFIFPPKPKDTLMISRTPEVTCVVVDVSQDDPEVQFTWYINNEQVRTARPPLREQQFNSTIRVVSTLPIAHQDWLRGKEFKCKVHNKALPAPIEKTISKARGQPLEPKVYTMGPPREELSSRSVSLTCMINGFYPSDISVEWEKNGKAEDNYKTTPAVLDSDGSYFLYSKLSVPTSEWQRGDVFTCSVMHEALHNHYTQKSISRSPGK light: ADIVMTQTPSPVEAAVGGTVTIKCQASESISSYLSWYQQKPGQPPKLLIYRASTLVSGVPSRFKGSGSGTDFTLTISDLECADAATYYCQHTYFGSDYVGGFGGGTEVVVKGDPVAPTVLIFPPAADQVATGTVTIVCVANKYFPDVTVTWEVDGTTQTTGIENSKTPQNSADCTYNLSSTLTLTSTQYNSHKEYTCKVTQGTTSVVQSFNRGDC,Detection of pSYK / distinction of untreated and Syk-inhibitor treated tumors,[1],able to specifically detect
same,Staining in recently biopsied DLBCL tissues versus Epitomics 2175-1,[2],much stronger and cleaner
same,"ratio of Percent Positive Pixel per total Pixel, PHTX 95L Untreated","[3]; 20× magnification, Positive Pixel Count v9",25.19%
same,"ratio of Percent Positive Pixel per total Pixel, PHTX95L SYK Inhibitor","[3]; mice treated with SYK inhibitor (Compound A), 20× magnification",11.30%
same,IHC performance compared with Epitomics 2175-1,"[3]; stains of PHTX-95L xenografts, intensity and signal to noise ratio, listed as MIL81-1-8",performing best and best
same,pSYK IHC staining after phosphatase treatment of slides,[4]; except nuclear staining of normal spleen,eliminated epitopes
same,pSYK IHC staining after adding peptide immunogen to the antibody,[4]; peptide blocking,blocked
same,IHC background,[5],minimal background

# From US20180066068A9, “ANTI-PSYK ANTIBODY MOLECULES AND USE OF SAME FOR SYK-TARGETED THERAPY” (Millennium Pharmaceuticals, Inc., priority 2014, published 2018)
